Test results as given in IntAct's records for PubMed 19596235.

B1: Structure-specific endonuclease subunit SLX4 (Homo sapiens), Q8IY92 (parent)
chain: MKLSVNEAQLGFYLGSLSHLSACPGIDPRSSEDQPESLKTGQMMDESDEDFKELCASFFQRVKKHGIKEVSGERKTQKAASNGTQIRSKLKRTKQTATKTKTLQGPAEKKPPSGSQAPRTKKQRVTKWQASEPAHSVNGEGGVLASAPDPPVLRETAQNTQTGNQQEPSPNLSREKTRENVPNSDSQPPPSCLTTAVPSPSKPRTAQLVLQRMQQFKRADPERLRHASEECSLEAAREENVPKDPQEEMMAGNVYGLGPPAPESDAAVALTLQQEFARVGASAHDDSLEEKGLFFCQICQKNLSAMNVTRREQHVNRCLDEAEKTLRPSVPQIPECPICGKPFLTLKSRTSHLKQCAVKMEVGPQLLLQAVRLQTAQPEGSSSPPMFSFSDHSRGLKRRGPTSKKEPRKRRKVDEAPSEDLLVAMALSRSEMEPGAAVPALRLESAFSERIRPEAENKSRKKKPPVSPPLLLVQDSETTGRQIEDRVALLLSEEVELSSTPPLPASRILKEGWERAGQCPPPPERKQSFLWEGSALTGAWAMEDFYTARLVPPLVPQRPAQGLMQEPVPPLVPPEHSELSERRSPALHGTPTAGCGSRGPSPSASQREHQALQDLVDLAREGLSASPWPGSGGLAGSEGTAGLDVVPGGLPLTGFVVPSQDKHPDRGGRTLLSLGLLVADFGAMVNNPHLSDVQFQTDSGEVLYAHKFVLYARCPLLIQYVNNEGFSAVEDGVLTQRVLLGDVSTEAARTFLHYLYTADTGLPPGLSSELSSLAHRFGVSELVHLCEQVPIATDSEGKPWEEKEAENCESRAENFQELLRSMWADEEEEAETLLKSKDHEEDQENVNEAEMEEIYEFAATQRKLLQEERAAGAGEDADWLEGGSPVSGQLLAGVQVQKQWDKVEEMEPLEPGRDEAATTWEKMGQCALPPPQGQHSGARGAEAPEQEAPEEALGHSSCSSPSRDCQAERKEGSLPHSDDAGDYEQLFSSTQGEISEPSQITSEPEEQSGAVRERGLEVSHRLAPWQASPPHPCRFLLGPPQGGSPRGSHHTSGSSLSTPRSRGGTSQVGSPTLLSPAVPSKQKRDRSILTLSKEPGHQKGKERRSVLECRNKGVLMFPEKSPSIDLTQSNPDHSSSRSQKSSSKLNEEDEVILLLDSDEELELEQTKMKSISSDPLEEKKALEISPRSCELFSIIDVDADQEPSQSPPRSEAVLQQEDEGALPENRGSLGRRGAPWLFCDRESSPSEASTTDTSWLVPATPLASRSRDCSSQTQISSLRSGLAVQAVTQHTPRASVGNREGNEVAQKFSVIRPQTPPPQTPSSCLTPVSPGTSDGRRQGHRSPSRPHPGGHPHSSPLAPHPISGDRAHFSRRFLKHSPPGPSFLNQTPAGEVVEVGDSDDEQEVASHQANRSPPLDSDPPIPIDDCCWHMEPLSPIPIDHWNLERTGPLSTSSPSRRMNEAADSRDCRSPGLLDTTPIRGSCTTQRKLQEKSSGAGSLGNSRPSFLNSALWDVWDGEEQRPPETPPPAQMPSAGGAQKPEGLETPKGANRKKNLPPKVPITPMPQYSIMETPVLKKELDRFGVRPLPKRQMVLKLKEIFQYTHQTLDSDSEDESQSSQPLLQAPHCQTLASQTYKPSRAGVHAQQEATTGPGAHRPKGPAKTKGPRHQRKHHESITPPSRSPTKEAPPGLNDDAQIPASQESVATSVDGSDSSLSSQSSSSCEFGAAFESAGEEEGEGEVSASQAAVQAADTDEALRCYIRSKPALYQKVLLYQPFELRELQAELRQNGLRVSSRRLLDFLDTHCITFTTAATRREKLQGRRRQPRGKKKVERN

Variants of: B1
Settings: with plk1_human PLK1, P53350
Chain of plk1_human PLK1, P53350 (P53350 whole entry): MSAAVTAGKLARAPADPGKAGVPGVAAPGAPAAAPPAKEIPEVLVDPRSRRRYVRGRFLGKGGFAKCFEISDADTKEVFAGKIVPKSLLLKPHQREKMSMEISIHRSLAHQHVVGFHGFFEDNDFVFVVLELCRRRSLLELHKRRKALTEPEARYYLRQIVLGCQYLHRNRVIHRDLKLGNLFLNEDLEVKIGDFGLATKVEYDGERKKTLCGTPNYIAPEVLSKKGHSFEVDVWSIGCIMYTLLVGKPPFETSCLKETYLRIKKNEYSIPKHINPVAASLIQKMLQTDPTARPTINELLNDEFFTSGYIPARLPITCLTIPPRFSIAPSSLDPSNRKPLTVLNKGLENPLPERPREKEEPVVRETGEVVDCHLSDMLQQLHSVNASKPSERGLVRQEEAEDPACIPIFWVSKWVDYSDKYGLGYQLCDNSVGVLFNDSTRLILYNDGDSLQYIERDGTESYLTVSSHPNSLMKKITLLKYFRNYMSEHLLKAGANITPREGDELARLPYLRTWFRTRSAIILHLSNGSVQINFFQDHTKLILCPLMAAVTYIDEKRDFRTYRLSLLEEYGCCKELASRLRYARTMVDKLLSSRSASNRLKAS

effect of a mutation on the interaction | Variant
decreasing interaction | S1453A
